Results reported in paper PMC11366018 (Nature Communications, 2024).
Substitutions are numbered along the chain they refer to. Where “and” joins values, the source holds several entries; their conditions need not be identical. Equal entries are not always repeated.

B1: S2A4 (antibody, V domains shown)
VH: EVQLVESGGGLVQPGGSLRLSCAASGFTFSSYWMNWVRQAPGKGLEWVANIKQDGSEKYYVDSVKGRFTISRDNAKNSLFLQMNSLRAEDTAVYYCARVWWLRGSFDYWGQGTLVTVSS
VL: NFMLTQPHSVSESPGKTVTISCTGSSGSIASNYVQWYQQRPGSAPTTVIYEDNQRPSGVPDRFSGSIDSSSNSASLTISGLKTEDEADYYCQSYDSSNHVVFGGGTKLTVL
B2: H18 (antibody, V domains shown)
VH: QVQLQESGPGLVKPSETLSLTCTVSGGSVSSGGYFWSWIRQPPGKGLEWIGCIYYSGSTNYNPSLKSRVTISVDTSKDQFSLKLSSVTAADTAVYYCARQLWLRGRFDYWGQGTLVTVSS
VL: NFMLTQPHSVSESPGKTVTISCTRSSGSIASNYVQWYQQRPGSSPTTVIYEDNQRPSGVPDRFSGSIDSSSNSASLTISGLKTEDEADYYCQSYDSSNVVFGGGTKLTVL
notes: human IgG1
B3: R1-26 (antibody, V domains shown)
VH: EVQLVESGGGLVQPGGSLRLSCAASGFTFSSYWMSWVRQAPGKGLEWVANIKQDGSEKYYVDSVKGRFTISRDNAKNSLYLQMNSLRAEDTAVYYCARGQLGPWVGVDYWGQGTLVTVSS
VL: B2 VL with R24G, S44A, V99W, K106Q

Target: SARS-CoV-2 RBD (WT) (SARS-CoV-2 Wuhan-Hu-1 (wildtype), UniProt P0DTC2)
Assay: BLI
Settings: both partners purified

Binder | Kd | koff | kon
B1 | 25.3 nM | 0.0096 s⁻¹ | 380000 M⁻¹ s⁻¹
B2 | 29.5 nM and 29 nM | 0.00931 s⁻¹ and 0.0162 s⁻¹ | 316000 M⁻¹ s⁻¹ and 560000 M⁻¹ s⁻¹
B3 | 5.75 nM | 0.00291 s⁻¹ | 507000 M⁻¹ s⁻¹
